In general, Kd refers to a measure of binding affinity in units of concentration. A higher Kd goes with lower affinity.

From publication PMC8956599 come the findings set out here.

This data set concerns the target T1, translation initiation factor IF3 (Escherichia coli) (UniProt P0A707).
T1 sequence: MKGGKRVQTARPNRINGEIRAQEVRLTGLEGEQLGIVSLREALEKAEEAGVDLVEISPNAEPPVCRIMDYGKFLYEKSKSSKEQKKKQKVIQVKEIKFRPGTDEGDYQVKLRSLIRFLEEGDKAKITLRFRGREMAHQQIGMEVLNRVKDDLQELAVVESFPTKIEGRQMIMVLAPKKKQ
The experiment in a line: fluorescence anisotropy. The note with it: Binding buffer and temperature not given in material; EMSA gels in Tris/acetate or Tris/borate; anisotropy with 200 nM RNA and DFHBI-1T; protein storage buffer …. (In fluorescence polarisation assays a small probe gives low polarisation when free and higher when bound to something large.)

For “GGGUGGUAACUAGCCAAGCAGCUAGUUACCAAAUCGGGAGAAUCCCGGGUCCUCUCUUUAGGGGGAGGUCCCUGGGCCGAAGCCCGCCCACCUUUCGGUGGAGCCGGACCGCUUUCGCACCCGUGCUCUUUCGAGCACACCCACCCCGUUUACGGGGGUCCCUCGGUCAGCUACCGAGGAGUUGCCAUGUGUAUGUGGGAGACGGUCGGGUCCAGAUAUUCGUAUCUGUCGAGUAGAGUGUGGGCUCCCACAUACUCUGAUGAUCCUUCGGGAUCAUUCAUGGCAAAAACCUCCUAGGAAUGGAAUUCCGGCUACCUACAGCGAUAGCCAUGGUAGCGUCUCGCUAAAGACAUUAAAAAUGGCAUUAGCUCGACAGGAAGUUGAGCAGGACCCCGAAAGGGGUCCCACCC [[F30-Bro(+)]UTR(-)]”, the dissociation constant (Kd) worked out at 3.5 µM.
